Changes are numbered by the printed parent chain. Where two headings read alike, the source gives them in different places. One block for each molecule: values may come before it.
How the values were obtained:
[1] = target: human IGF-1R on BaF3 cells overexpressing human IGF-1R (human) (UniProt P08069); assay: cell-based or functional assay
[2] = target: T1, recombinant human IGF-1R-his (human, UniProt P08069 31-932); assay: competition ELISA, coated hIGF-1R-his, competitor IGF-1-Fc 1.25 µg/mL
T1 construct: Recombinant his-tagged protein; also called hIGF-1R-his; hIGF1R-his; not shown: his tag
Protocol: Recombinant human IGF-1R-his antigens (5 μg/mL) were added to a 96-well plate for coating overnight at 4° C. The plate was washed with PBS, and then was blocked with 1% casein at room temperature for 1 h. The VHH samples were diluted 2-fold serially with 0.1% BSA/PBS, with a starting concentration of 20 μg/mL. […] The plate was washed three times with 0.1% PBST, horseradish peroxidase-labeled anti-human Fc tag antibodies (anti-human IgG-HRP, Abcam ab6759, 1:5,000, containing 1% casein) were added and incubated at room temperature for 30 min, and the plate was washed three times with 0.1% PBST. A TMB substrate solution (Thermo, 34028) was added for color development, the OD₄₅₀ was read using a microplate reader, and a curve was fit and the EC₅₀ value was calculated using Graphpad Prism software.

[3] = target: T2, recombinant mouse IGF-1R-his (mouse, UniProt Q60751 31-933); assay: ELISA, coated antigen 5 µg/mL
T2 construct: not shown: his tag
Protocol: (§1) Recombinant human, monkey and mouse IGF-1R-his antigens and human insulin receptor proteins (5 μg/mL) were added to a 96-well plate for coating overnight at 4° C. The plate was washed with PBS, and then was blocked with 1% casein at room temperature for 1 h. The nanobody-Fc fusion proteins were diluted to 2 μg/mL with 0.1% BSA/PBS, added to the antigen-coated 96-well plate, and incubated at room temperature for 1 hour. The plate was washed three times with 0.1% PBST, horseradish peroxidase-labeled anti-human Fc tag antibodies (anti-human IgG-HRP, Abcam ab6759, 1:5,000, containing 1% casein) were added and incubated at room temperature for 30 min, and the plate was washed three times with 0.1% PBST. A TMB substrate solution (Thermo, 34028) was added for color development, and the OD₄₅₀ was read using a microplate reader.

[4] = target: T3, human insulin receptor protein (human, UniProt P06213-2 28-944, limits assumed); assay: ELISA, coated antigen 5 µg/mL
T3 construct: also called human insulin receptor proteins
Protocol: as §1

[5] = target: T1, recombinant human IGF-1R-his; assay: ELISA, coated hIGF-1R-his
Protocol: Recombinant human IGF-1R-his antigens (2 μg/mL) were added to a 96-well plate for coating overnight at 4° C. The plate was washed three times with PBST, and then was blocked with PBST containing 5% skimmed milk powder at room temperature for 2 h. The blocking solution was discarded, the plate was washed three times with PBST, and then 30 μL of nanobody-Fc fusion proteins of different concentrations were added and incubated at room temperature for 1 h. The plate was washed 3 times with PBST, horseradish peroxidase-labeled anti-human Fc antibodies (abcam, ab97225) were added at 30 μL/well and incubated at room temperature for 1 h, and the plate was washed 3 times with PBST. TMB substrate solution was added at 30 μL/well for color development in the dark for 5-30 min, 30 μL of 2 M H₂SO₄ was added to terminate the reaction, and the OD₄₅₀ was read using a microplate reader. A curve was fit and the EC₅₀ value was calculated using Graphpad Prism software.

[6] = target: T1, recombinant human IGF-1R-his; assay: competition ELISA, coated hIGF-1R-his, competitor IGF-2 (N-Avi & N-Fc)
Protocol: (§2) Recombinant human IGF-1R-his antigens (5 μg/mL) were added to a 96-well plate for coating overnight at 4° C. The plate was washed 4 times with 1×TBST, and then was blocked with 2% BSA at 37° C. for 1.5 h. The plate was washed four times with 1×TBST. A volume of 50 μL of biotinylated IGF-1-Fc (2.5 μg/mL) or IGF-2 (N-Avi & N-Fc 4 μg/mL), and 50 μL of nanobody-Fc fusion proteins of different concentrations (with a starting concentration of 10 μg/mL, 2-fold serially diluted) were added to the 96-well plate and incubated at 37° C. for 1 h. The plate was washed 4 times with 1×TBST, horseradish peroxidase-labeled Streptavidin (Thermo, 21126) was added and incubated at 37° C. for 1 h, and the plate was washed 4 times with 1×TBST. TMB substrate solution was added at 200 μL/well for color development in the dark for 20 min, 50 μL of 1 M H₂SO₄ was added to terminate the reaction, and the OD₄₅₀ was read using a microplate reader. A curve was fit and the IC₅₀ value was calculated using Graphpad Prism software.

[7] = target: T1, recombinant human IGF-1R-his; assay: competition ELISA, coated hIGF-1R-his, competitor biotinylated IGF-1-Fc
Protocol: as §2

[8] = target: T1, recombinant human IGF-1R-his; assay: ELISA, coated hIGF-1R-his; remark: listed apart in the source
Protocol: The binding activity of the nanobody-Fc fusion proteins obtained after two rounds of mutant construction with the antigen proteins (recombinant human IGF-1R-His) was detected by an ELISA method: 2 μg/mL recombinant human IGF1R-His antigen proteins were added to a 96-well ELISA plate, at 30 μL/well, for coating overnight at 4° C. The plate was washed three times with PBST. PBS containing 5% skim milk powder was added for blocking at room temperature for 2 h. The plate was washed three times with PBST. The nanobody-Fc fusion proteins were serially diluted 3-fold, and the nanobody-Fc fusion proteins of different concentrations were added to each well at 30 μL/well and incubated at room temperature for 1 h. The plate was washed three times with PBST, and horseradish peroxidase-labeled anti-human Fc antibodies were added at 30 μL/well and incubated at room temperature for 50 min. The plate was washed three times with PBST. TMB substrate solution was added at 30 μL/well for color development in the dark for 1-5 min, 30 μL of 2 M hydrochloric acid was added to terminate the reaction, and the OD₄₅₀ was read using a microplate reader. Curve fitting was conducted and the EC₅₀ value was calculated using Graphpad Prism software.

[9] = target: T1, recombinant human IGF-1R-his; assay: SPR (BIAcore), hIGF-1R-his on CM5 chip, Test 1
Protocol: The affinity of the nanobody fusion proteins to recombinant human IGF-1R was detected using a BIAcore instrument. […] The flow rate was set to 10 μL/min. The chip activation time of a mixture of EDC and NHS was the default value of 420 s. The recombinant human IGF-1R-his was coupled to 800 RU on a CM5 chip under the preset coupling mode, and unbound activated groups were blocked with ethanolamine. Two-fold serially diluted nanobody-Fc fusion proteins (five concentrations of each fusion protein were detected) were injected sequentially at a flow rate of 50 μL/min at 25° C., with an association time of 120 s and a dissociation time of 600 s. A curve was fit with a 1:1 Langmuir binding model using the BIAcore T200 analysis software to determine kinetic constants such as the association rate constant, the dissociation rate constant, and the association dissociation constant.

T1 sequence (P08069 31-932 limits assumed): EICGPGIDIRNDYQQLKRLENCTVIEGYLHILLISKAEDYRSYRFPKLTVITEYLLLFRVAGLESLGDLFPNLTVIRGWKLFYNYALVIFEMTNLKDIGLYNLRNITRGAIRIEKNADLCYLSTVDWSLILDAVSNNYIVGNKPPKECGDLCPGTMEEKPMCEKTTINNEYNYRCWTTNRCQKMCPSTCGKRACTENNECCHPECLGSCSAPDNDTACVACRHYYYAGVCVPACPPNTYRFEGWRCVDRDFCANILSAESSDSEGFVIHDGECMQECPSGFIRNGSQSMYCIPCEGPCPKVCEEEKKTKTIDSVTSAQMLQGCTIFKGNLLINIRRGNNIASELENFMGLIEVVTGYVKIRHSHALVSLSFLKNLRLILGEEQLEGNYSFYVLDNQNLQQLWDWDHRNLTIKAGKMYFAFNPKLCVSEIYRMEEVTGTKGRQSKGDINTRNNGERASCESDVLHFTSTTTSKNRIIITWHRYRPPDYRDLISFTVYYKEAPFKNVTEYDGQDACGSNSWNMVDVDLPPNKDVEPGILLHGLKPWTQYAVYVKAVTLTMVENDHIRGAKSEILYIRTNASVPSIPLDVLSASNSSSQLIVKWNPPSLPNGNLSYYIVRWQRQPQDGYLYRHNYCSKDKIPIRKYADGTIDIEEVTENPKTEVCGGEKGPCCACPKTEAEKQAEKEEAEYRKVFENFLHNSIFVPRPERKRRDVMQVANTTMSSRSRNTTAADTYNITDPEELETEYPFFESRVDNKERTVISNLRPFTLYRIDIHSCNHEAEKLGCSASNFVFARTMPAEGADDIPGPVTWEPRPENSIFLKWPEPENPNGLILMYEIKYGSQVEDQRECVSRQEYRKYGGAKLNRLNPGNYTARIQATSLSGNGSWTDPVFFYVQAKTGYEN
Chain of human IGF-1R on BaF3 cells overexpressing human IGF-1R (human) (P08069 31-1367): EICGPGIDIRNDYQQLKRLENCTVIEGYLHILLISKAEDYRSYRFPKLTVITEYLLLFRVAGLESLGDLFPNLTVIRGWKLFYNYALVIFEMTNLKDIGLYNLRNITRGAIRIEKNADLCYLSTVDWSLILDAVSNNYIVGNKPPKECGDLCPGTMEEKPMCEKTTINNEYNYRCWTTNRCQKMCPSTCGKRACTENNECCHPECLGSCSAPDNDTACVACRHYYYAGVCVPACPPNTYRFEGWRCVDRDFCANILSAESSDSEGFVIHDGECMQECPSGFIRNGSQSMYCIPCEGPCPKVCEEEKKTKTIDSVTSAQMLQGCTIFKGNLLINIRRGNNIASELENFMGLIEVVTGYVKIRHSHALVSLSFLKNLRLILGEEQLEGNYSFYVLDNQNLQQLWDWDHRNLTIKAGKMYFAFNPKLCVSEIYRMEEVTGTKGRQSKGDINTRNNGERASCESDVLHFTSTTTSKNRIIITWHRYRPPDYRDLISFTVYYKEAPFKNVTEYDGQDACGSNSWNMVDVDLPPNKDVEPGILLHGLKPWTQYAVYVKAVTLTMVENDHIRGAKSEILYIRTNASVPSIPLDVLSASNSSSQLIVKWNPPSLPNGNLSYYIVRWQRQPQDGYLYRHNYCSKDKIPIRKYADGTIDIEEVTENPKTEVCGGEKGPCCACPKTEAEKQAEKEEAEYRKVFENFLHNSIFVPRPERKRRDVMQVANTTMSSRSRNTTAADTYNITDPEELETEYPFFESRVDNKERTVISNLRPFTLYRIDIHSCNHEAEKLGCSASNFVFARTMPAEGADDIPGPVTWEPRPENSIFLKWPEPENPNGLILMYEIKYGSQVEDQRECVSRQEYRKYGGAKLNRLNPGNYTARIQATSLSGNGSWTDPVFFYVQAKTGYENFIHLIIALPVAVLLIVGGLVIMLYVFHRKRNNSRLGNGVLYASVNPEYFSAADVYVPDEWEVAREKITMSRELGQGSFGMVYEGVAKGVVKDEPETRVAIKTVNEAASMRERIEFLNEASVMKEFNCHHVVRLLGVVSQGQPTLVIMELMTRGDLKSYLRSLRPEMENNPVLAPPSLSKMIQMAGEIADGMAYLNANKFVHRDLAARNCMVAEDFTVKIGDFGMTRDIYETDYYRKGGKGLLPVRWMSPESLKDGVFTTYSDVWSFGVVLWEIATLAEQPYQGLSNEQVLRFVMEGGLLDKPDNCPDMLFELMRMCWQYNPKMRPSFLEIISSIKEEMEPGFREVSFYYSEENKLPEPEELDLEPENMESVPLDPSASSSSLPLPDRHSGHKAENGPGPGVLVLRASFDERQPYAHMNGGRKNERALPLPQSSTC
T3 sequence (P06213 other isoform, or with tags, fused parts or gaps limits assumed): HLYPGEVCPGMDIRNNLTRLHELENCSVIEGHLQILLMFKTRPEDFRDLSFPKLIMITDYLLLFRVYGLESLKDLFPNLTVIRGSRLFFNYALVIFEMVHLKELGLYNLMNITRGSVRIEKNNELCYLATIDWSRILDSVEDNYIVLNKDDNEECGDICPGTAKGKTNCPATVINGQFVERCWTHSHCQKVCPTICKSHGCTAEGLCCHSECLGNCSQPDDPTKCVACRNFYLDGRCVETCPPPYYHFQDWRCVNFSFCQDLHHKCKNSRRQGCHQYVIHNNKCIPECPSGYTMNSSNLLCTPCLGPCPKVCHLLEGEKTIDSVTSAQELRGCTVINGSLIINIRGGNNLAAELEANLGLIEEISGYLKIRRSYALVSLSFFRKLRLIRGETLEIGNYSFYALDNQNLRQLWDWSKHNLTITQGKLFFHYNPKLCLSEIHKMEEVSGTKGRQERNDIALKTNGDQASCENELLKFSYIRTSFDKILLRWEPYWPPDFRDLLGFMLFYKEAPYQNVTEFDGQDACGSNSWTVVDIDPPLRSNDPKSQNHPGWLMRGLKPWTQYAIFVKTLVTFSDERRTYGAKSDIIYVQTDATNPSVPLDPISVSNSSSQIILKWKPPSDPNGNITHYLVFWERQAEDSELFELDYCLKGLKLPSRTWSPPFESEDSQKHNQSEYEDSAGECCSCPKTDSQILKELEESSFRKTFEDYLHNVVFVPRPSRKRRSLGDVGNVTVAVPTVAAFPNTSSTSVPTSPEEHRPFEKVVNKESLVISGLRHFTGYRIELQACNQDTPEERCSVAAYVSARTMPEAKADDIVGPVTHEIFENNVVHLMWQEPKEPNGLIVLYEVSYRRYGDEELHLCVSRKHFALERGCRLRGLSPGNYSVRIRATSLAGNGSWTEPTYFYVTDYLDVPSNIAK
T2 sequence (Q60751 31-933 limits assumed): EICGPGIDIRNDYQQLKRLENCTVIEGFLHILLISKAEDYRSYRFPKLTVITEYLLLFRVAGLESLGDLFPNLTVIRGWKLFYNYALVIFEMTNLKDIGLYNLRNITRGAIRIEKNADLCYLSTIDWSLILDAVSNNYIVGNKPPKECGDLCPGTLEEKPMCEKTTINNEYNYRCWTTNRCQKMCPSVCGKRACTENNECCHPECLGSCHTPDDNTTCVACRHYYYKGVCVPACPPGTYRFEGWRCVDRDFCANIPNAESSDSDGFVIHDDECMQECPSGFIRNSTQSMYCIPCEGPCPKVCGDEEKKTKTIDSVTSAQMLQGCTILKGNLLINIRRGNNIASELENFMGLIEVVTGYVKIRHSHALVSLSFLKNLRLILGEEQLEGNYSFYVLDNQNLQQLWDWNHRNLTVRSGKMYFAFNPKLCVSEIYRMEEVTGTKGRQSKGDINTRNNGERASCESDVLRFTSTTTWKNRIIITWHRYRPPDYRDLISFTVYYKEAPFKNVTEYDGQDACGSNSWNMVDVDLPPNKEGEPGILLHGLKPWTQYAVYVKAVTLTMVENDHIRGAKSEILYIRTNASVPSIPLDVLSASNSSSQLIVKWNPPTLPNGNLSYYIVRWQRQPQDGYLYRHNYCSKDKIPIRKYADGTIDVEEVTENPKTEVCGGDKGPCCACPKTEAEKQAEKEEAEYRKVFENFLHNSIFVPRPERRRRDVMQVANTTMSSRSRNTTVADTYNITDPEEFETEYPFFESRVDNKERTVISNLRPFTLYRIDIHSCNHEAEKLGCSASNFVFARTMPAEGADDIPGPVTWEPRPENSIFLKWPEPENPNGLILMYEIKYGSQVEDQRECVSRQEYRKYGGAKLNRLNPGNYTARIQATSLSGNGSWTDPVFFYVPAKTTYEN

IC50, inhibition of IGF-1-induced proliferation of BaF3 cells overexpressing human IGF-1R [1]: 0.121 µg/mL
Molecule: Teprotumumab (antibody)

IC50 [2]: 0.7 µg/mL
B2: nanobody 5666 (VHH) (VHH)
VHH: EVQLVESGGGLVQAGGSLRLSCAVSGRTFSSYVMGWFRQAPGKERELVAAISGSGSRSNYADSVKGRFTVSRDNANNTVYLQMSSLRPDDTGLYYCAANPRRATTDYTQYAYWGQGTQVTVSS

EC50 [8]: 0.183 nM
B4: 5115-H4-M52-Fc (Fc fusion)
chain: EVQLVESGGGLVQPGGSLRLSCAASSRTFSSFVMSWFRQAPGKGLEFVSAISGSGSRANYADSVKGRFTISRDNSKNTLYLQMNSLRAEDTAVYYCAANPRRATPDLTQYAYWGQGTLVTVSS
notes: VHH-Fc; Fc not specified; not shown: Fc

EC50 [5]: 0.0929 µg/mL
B6: 5115-H6-Fc (Fc fusion)
chain: B4 chain with S26G, S35M, G44E, L45R, N59Y, L107Y
notes: Humanized VHH-Fc; Fc not specified; not shown: Fc

EC50 [8]: 0.475 nM
B8: 5115-H4-M48-Fc (Fc fusion)
chain: B4 chain with G16D, S26G, S31R, N59Y, T108R
notes: as for B4

EC50 [8]: 0.00241 µg/mL
B9: 5115-H4-M34-16-Fc (Fc fusion)
chain: B4 chain with S26G, S35G, S54F, N59R
notes: as for B4

IC50, inhibition of IGF-1-induced proliferation of BaF3 cells overexpressing human IGF-1R [1]: 0.00816 µg/mL | IC50, inhibition of IGF-1-induced proliferation of BaF3 cells overexpressing human IGF-1R ([1]; record 2): 0.00851 µg/mL | EC50 [8]: 0.052 nM | Kd [9]: 0.0862 nM | koff [9]: 0.000274 s⁻¹ | kon [9]: 3.18e+06 M⁻¹ s⁻¹ | IC50 [6]: 0.237 µg/mL | IC50 [7]: 0.269 µg/mL
B10: 5115-H4-M34-Fc (Fc fusion)
chain: B4 chain with S26G, S35A, N59R
notes: as for B4

EC50 [8]: 0.175 nM
B11: 5115-H4-M41-Fc (Fc fusion)
chain: B4 chain with S26G, S35G, N59R, L107Y, A111L
notes: as for B4

EC50 [8]: 0.00225 µg/mL
B17: 5115-H4-M34-15-Fc (Fc fusion)
chain: B4 chain with S26G, F32L, S35A, N59R
notes: as for B4

EC50 [8]: 0.21 nM
B20: 5115-H4-M39-Fc (Fc fusion)
chain: B4 chain with S26G, A58S, N59R, T108R
notes: as for B4

More lines, now with the values behind:

B1: nanobody 5115 (VHH) (VHH)
VHH: B2 VHH with Y32F, L47F, S58A, S84N, R87K, G92A, T105P
IC50 [2]: 0.24 µg/mL

B3: 5115-H0-Fc (Fc fusion)
chain: B4 chain with S26G, G44E, L45R, N59Y, L107Y, L118Q
notes: as for B6
binding result [3]: no binding (tested: 2 µg/mL) | binding result [4]: no binding (tested: 2 µg/mL) | EC50 [5]: 0.0327 µg/mL | IC50 [6]: 0.177 µg/mL | IC50 [7]: 0.236 µg/mL

B5: 5115-H4-M34-12-Fc (Fc fusion)
chain: B4 chain with S26G, T28P, S35A, N59R, R102Y
notes: as for B4
EC50 [8]: 0.00333 µg/mL

B7: 5115-H1-M10-Fc (Fc fusion)
chain: B4 chain with S26G, R27G, G44E, L45R, N59Y, D106G, L107F
notes: as for B4
EC50 [8]: 0.0017 µg/mL | Kd [9]: 1.15 nM | koff [9]: 0.00123 s⁻¹ | kon [9]: 1.07e+06 M⁻¹ s⁻¹

B12: 5115-H4-M34-14-Fc (Fc fusion)
chain: B4 chain with S26R, R27G, S35A, S56K, R57V, N59R
notes: as for B4
EC50 [8]: 0.00328 µg/mL

B13: 5115-H2-Fc (Fc fusion)
chain: B4 chain with S26G, L45R, N59Y, L107Y
notes: as for B6
EC50 [5]: 0.0652 µg/mL

B14: 5115-H4-Fc (Fc fusion)
chain: B4 chain with S26G, N59Y, L107Y
notes: as for B6
EC50 [5]: 0.0828 µg/mL | IC50 [6]: 0.152 µg/mL | IC50 [7]: 0.227 µg/mL

B15: 5115-H1-M17-Fc (Fc fusion)
chain: B4 chain with S26G, G44E, L45R, A58S, N59R, T108I
notes: as for B4
EC50 [8]: 0.00184 µg/mL | Kd [9]: 0.101 nM | koff [9]: 0.000465 s⁻¹ | kon [9]: 4.62e+06 M⁻¹ s⁻¹

B16: 5115-H3-Fc (Fc fusion)
chain: B4 chain with S26G, G44E, N59Y, L107Y
notes: as for B6
EC50 [5]: 0.0925 µg/mL

B18: 5115-H1-M3-Fc (Fc fusion)
chain: B4 chain with S26G, G44E, L45R, N59R
notes: as for B4
EC50 [8]: 0.00122 µg/mL | Kd [9]: 1.85 nM | koff [9]: 0.00207 s⁻¹ | kon [9]: 1.12e+06 M⁻¹ s⁻¹

B19: 5115-H4-M34-11-Fc (Fc fusion)
chain: B4 chain with S26T, S35A, N59R
notes: as for B4
EC50 [8]: 0.00233 µg/mL

B21: 5115-H1-Fc (Fc fusion)
chain: B4 chain with S26G, G44E, L45R, N59Y, L107Y
notes: as for B6
EC50 [5]: 0.0369 µg/mL | Kd [9]: 31.7 nM | koff [9]: 0.00211 s⁻¹ | kon [9]: 66800 M⁻¹ s⁻¹
